# Laboratory results from the supplement of paper PMC9233669.
# Variants at the floor of the assay were thinned out.
# What was measured:
# biotinyl-Phe-oxazolone = experiment: self-aminoacylation, catalytic enhancement (BFO) (fold over background); higher = more active; k-Seq, kA / k0A0; sequences stand for … in GGGAAUGGAUCCACAUCUACGAAUUC…UUCACUGCAGACUUGACGAAGCUG
# Outline: (§1)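 Each biotinyl-aminoacyl-oxazolone, at 2–1250 μM, was incubated with mutagenized RNA pools (0.43 μM) carrying a 21-nt variable region. The 50 μL reactions contained HEPES/NaCl/KCl/MgCl2/CaCl2 buffer with 5% acetonitrile at pH 6.9–7.0 and ran for 90 minutes at room temperature. After streptavidin capture, RNA was measured by qPCR in triplicate and by Illumina sequencing, and catalytic enhancement was calculated as median kA over the uncatalyzed rate from a pseudo-first-order fit of per-sequence fraction reacted.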
# biotinyl-Ile-oxazolone = experiment: self-aminoacylation, catalytic enhancement (BIO) (fold over background); higher = more active; k-Seq, kA / k0A0; sequences stand for … in GGGAAUGGAUCCACAUCUACGAAUUC…UUCACUGCAGACUUGACGAAGCUG
# Outline: as §1
# biotinyl-Met-oxazolone = experiment: self-aminoacylation, catalytic enhancement (BMO) (fold over background); higher = more active; k-Seq, kA / k0A0; sequences stand for … in GGGAAUGGAUCCACAUCUACGAAUUC…UUCACUGCAGACUUGACGAAGCUG
# Outline: as §1
# biotinyl-Val-oxazolone = experiment: self-aminoacylation, catalytic enhancement (BVO) (fold over background); higher = more active; k-Seq, kA / k0A0; sequences stand for … in GGGAAUGGAUCCACAUCUACGAAUUC…UUCACUGCAGACUUGACGAAGCUG
# Outline: as §1
# biotinyl-Leu-oxazolone = experiment: self-aminoacylation, catalytic enhancement (BLO) (fold over background); higher = more active; k-Seq, kA / k0A0; sequences stand for … in GGGAAUGGAUCCACAUCUACGAAUUC…UUCACUGCAGACUUGACGAAGCUG
# Outline: as §1
# biotinyl-Trp-oxazolone = experiment: self-aminoacylation, catalytic enhancement (BWO) (fold over background); higher = more active; k-Seq, kA / k0A0; sequences stand for … in GGGAAUGGAUCCACAUCUACGAAUUC…UUCACUGCAGACUUGACGAAGCUG
# Outline: as §1
Sequence,self-aminoacylation (biotinyl-Phe-oxazolone),self-aminoacylation (biotinyl-Ile-oxazolone),self-aminoacylation (biotinyl-Met-oxazolone),self-aminoacylation (biotinyl-Val-oxazolone),self-aminoacylation (biotinyl-Leu-oxazolone),self-aminoacylation (biotinyl-Trp-oxazolone)
AUUCUCCUAGGUUAUCGGGUG [Fam2.2 aminoacylation ribozyme variant],40.2,4.08,6.52,3.88,8.02,6.28
AUUCUCCUAUGUCAUCGGGUG [Fam2.2 aminoacylation ribozyme variant],65.9,5.5,9.01,5.62,11.6,8.54
AUUCUCCUCGGUCAUCGGGUG [Fam2.2 aminoacylation ribozyme variant],108,8.05,11.3,7.28,15.5,11.6
AUUCUCCUGGGUCAUCGGGUG [Fam2.2 aminoacylation ribozyme variant],73.6,6.05,9.61,7.53,10.8,9.42
AUUCUCCUUGGUCAUCGGGUG [Fam2.2 aminoacylation ribozyme variant],75,6.85,9.71,7.53,13.8,9.53
AUUCUGCUAGGUCAUCGGGUG [Fam2.2 aminoacylation ribozyme variant],72.1,5.96,9.46,6.13,12,9.84
AUUGAACUAGGUCAUCGGGUG [Fam2.2 aminoacylation ribozyme variant],30,3.36,4.33,3.28,4.62,5.03
AUUGACCGAGGUCAUCGGGUG [Fam2.2 aminoacylation ribozyme variant],54.8,4.88,8.11,4.8,11,8.13
AUUGACCUAGAUCAUCGGGUG [Fam2.2 aminoacylation ribozyme variant],18,2.54,3.5,2.54,3.59,3.51
AUUGACCUAGGUCAGCGGGUG [Fam2.2 aminoacylation ribozyme variant],12.5,2.61,2.59,2.86,3.01,3.29
AUUGACCUAGGUCAUCUGGUG [Fam2.2 aminoacylation ribozyme variant],8.46,1.83,1.9,1.7,2.42,2.27
AUUGACCUAGGUGAUCGGGUG [Fam2.2 aminoacylation ribozyme variant],25.9,4.21,4.22,3.78,5.78,6.18
AUUGCCCUAGGUCAUCGGGUG [Fam2.2 aminoacylation ribozyme variant],62.7,5.44,8.34,5.7,11.8,7.92
AUUGCCCUGGCCAUCGAGUGA [Fam2.1 aminoacylation ribozyme variant],25.2,2.48,3.8,2.74,4.96,4.87
AUUGCCCUGGUCAGCGAGUGA [Fam2.1 aminoacylation ribozyme variant],36.7,3.29,5.91,3.76,5.65,6.28
AUUGCCCUGGUCAUCGAGUGG [Fam2.1 aminoacylation ribozyme variant],197,9.44,30.9,10.9,29.4,29.8
AUUGCCCUGGUCAUCGAGUGU [Fam2.1 aminoacylation ribozyme variant],448,18.4,64.6,23.4,62.2,65.7
AUUGCCCUGGUCCUCGAGUGA [Fam2.1 aminoacylation ribozyme variant],23.4,1.94,3.5,2.05,3.42,3.66
AUUGUCCUGGUCAUCGAGUGA [Fam2.1 aminoacylation ribozyme variant],10,4.78,9.63,4.76,8.83,11.3
AUUUACCGAGGUCAUCGGGUG [Fam2.2 aminoacylation ribozyme variant],64.7,4.97,8.5,4.5,11.1,6.88
AUUUACCUAGGACAUCGGGUG [Fam2.2 aminoacylation ribozyme variant],10.9,2.26,2.48,2.23,3.45,2.29
AUUUACCUAGGUCAACGGGUG [Fam2.2 aminoacylation ribozyme variant],29.2,2.56,4.05,2.26,4.95,3.56
AUUUACCUAGGUCAUCGAGUG [Fam2.2 aminoacylation ribozyme variant],18.5,6.62,9.76,5.4,12.7,5.73
AUUUACCUAGGUCAUCGGAUG [Fam2.2 aminoacylation ribozyme variant],0.723,0.906,0.954,0.974,0.846,0.671
AUUUACCUAGGUCAUCGUGUG [Fam2.2 aminoacylation ribozyme variant],1.75,0.874,0.995,0.953,1.18,0.691
AUUUACCUAGGUCCUCGGGUG [Fam2.2 aminoacylation ribozyme variant],28.6,3.33,4.15,3.3,6.13,4.31

Sequence,self-aminoacylation (biotinyl-Phe-oxazolone),self-aminoacylation (biotinyl-Ile-oxazolone),self-aminoacylation (biotinyl-Met-oxazolone),self-aminoacylation (biotinyl-Val-oxazolone),self-aminoacylation (biotinyl-Leu-oxazolone),self-aminoacylation (biotinyl-Trp-oxazolone)
AUUUACCUAGGUUAUCGGGUG [Fam2.2 aminoacylation ribozyme variant],23.2,2.29,3.44,2.4,3.48,3.72
AUUUACCUCGGUCAUCGGGUG [Fam2.2 aminoacylation ribozyme variant],54.6,4.06,6.78,4.9,8.51,7.01
AUUUACCUGGGUCAUCGGGUG [Fam2.2 aminoacylation ribozyme variant],57.3,8.99,18.5,10.3,22.1,17.2
AUUUCCCUAGGUCAUCGGGUG [Fam2.2 aminoacylation ribozyme variant],70.4,6.29,10.3,6.97,13.5,9.73
AUUUCCCUGGACAUCGAGUGA [Fam2.1 aminoacylation ribozyme variant],41.7,2.83,6.51,3.54,5.46,8.11
AUUUCCCUGGUCAUCGAGUGC [Fam2.1 aminoacylation ribozyme variant],2.11,1.1,1.86,1.08,1.59,1.21
AUUUCCCUGGUCAUCUAGUGA [Fam2.1 aminoacylation ribozyme variant],76.6,4.45,8.93,4.67,9.47,11.7
AUUUCCGUGGUCAUCGAGUGA [Fam2.1 aminoacylation ribozyme variant],52.8,3.67,6.67,4.26,6.35,8.19
AUUUCCUUGGUCAUCGAGUGA [Fam2.1 aminoacylation ribozyme variant],43.8,4.35,8.2,4.63,8.92,11.1
AUUUGCCUGGUCAUCGAGUGA [Fam2.1 aminoacylation ribozyme variant],13.1,4.47,8,4.54,8.2,9.16
AUUUUUGCUAAUAGUCGCAAG [Fam3.1 aminoacylation ribozyme variant],1.71,1.37,1.07,1.02,0.994,1.02
CAACAAUUCAAGCAAUCGGUC [Fam1B.1 aminoacylation ribozyme variant],1.71,1.16,1.1,0.937,1.01,1.31
CAACACUCCAAGCAAUCGGUC [Fam1B.1 aminoacylation ribozyme variant],1.67,1.13,1.02,1.06,0.956,1.77
CAACACUGCAAGCAAUCGGUC [Fam1B.1 aminoacylation ribozyme variant],0.892,1.12,1.3,1.24,1.46,0.788
CAACACUUCAAGCAACCGGUC [Fam1B.1 aminoacylation ribozyme variant],1.59,1,1.12,0.998,1.2,0.754
CAACACUUCAAGCUAUCGGUC [Fam1B.1 aminoacylation ribozyme variant],0.964,1.2,1.03,1.05,0.89,1.02
CAACACUUCAGGCAAUCGGUC [Fam1B.1 aminoacylation ribozyme variant],1.27,1.43,1.12,1.19,1.34,1.3
CAACUUAAAACAAUCGGUCUG [Fam1A.1 aminoacylation ribozyme variant],1.71,0.984,1.09,1.14,1.11,0.948
CAACUUCAAACAAUCGGUUUG [Fam1A.1 aminoacylation ribozyme variant],87.8,1.51,1.71,1.62,2.6,44
CAACUUCAAACAAUCGUUCUG [Fam1A.1 aminoacylation ribozyme variant],1.83,0.675,0.624,0.734,0.728,1.03
CAACUUCAAACAAUGGGUCUG [Fam1A.1 aminoacylation ribozyme variant],2.23,1.21,0.966,0.929,1.06,0.937
CAACUUCAAACAGUCGGUCUG [Fam1A.1 aminoacylation ribozyme variant],5.76,1.21,1.2,1.19,1.08,0.928
CAACUUCAAACCAUCGGUCUG [Fam1A.1 aminoacylation ribozyme variant],1.41,1.06,0.913,1.1,1.07,1.14
CAACUUCAACCAAUCGGUCUG [Fam1A.1 aminoacylation ribozyme variant],66.9,1.37,1.67,1.61,2.41,33.2
CAACUUCAUACAAUCGGUCUG [Fam1A.1 aminoacylation ribozyme variant],1.65,1.06,0.861,0.962,1.04,0.771
